{
  "source": "patent US20210139548A1",
  "about": "(published 2021)",
  "target": "T1, human neuropeptide Y2 receptor (human, UniProt P49146 1-381)",
  "T1 construct": "whole, on cells; also called hNPY2 receptor; hNPY2-R",
  "T1 sequence (looked up)": "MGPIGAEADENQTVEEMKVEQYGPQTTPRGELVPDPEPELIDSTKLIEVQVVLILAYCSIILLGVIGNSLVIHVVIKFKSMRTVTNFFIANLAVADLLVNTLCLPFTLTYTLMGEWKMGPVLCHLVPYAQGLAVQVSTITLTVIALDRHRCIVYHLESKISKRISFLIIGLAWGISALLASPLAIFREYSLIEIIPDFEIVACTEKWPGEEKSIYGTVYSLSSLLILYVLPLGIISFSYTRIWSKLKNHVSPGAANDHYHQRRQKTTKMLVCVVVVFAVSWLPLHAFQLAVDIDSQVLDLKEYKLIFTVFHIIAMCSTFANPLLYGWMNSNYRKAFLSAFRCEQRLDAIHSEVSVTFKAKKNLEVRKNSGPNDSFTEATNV",
  "test": "radioligand competition (125I-PYY(1-36)), hNPY2R membranes",
  "procedure,_shortened": "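Commercial human Y2 receptor membranes (0.5 μg protein/well) were incubated with peptide for 2 h at room temperature in 50 mM HEPES, 5 mM MgCl₂, 1 mM CaCl₂, pH 7.4, with 0.2% ovalbumin. Bound radioligand was separated on PEI-soaked GF/C filters and counted by scintillation, and IC₅₀ came from nonlinear sigmoidal regression.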",
  "note": "*1 amine or outer side, *2 acyl side, *3 side chain or, on linkers, in order; H or OH if unused. Side-chain parts run from the residue outwards. The star is where a group is joined. C18 diacid = O=C(O)CCCCCCCCCCCCCCCCC(=O)*; γGlu = O=C(O)[C@H](CCC(=O)[*:2])N[*:1]; Isovaleryl = CC(C)CC(=O)*; AEEA = NCCOCCOCC(=O)O",
  "data": [
    {"binder": "Isovaleryl-APEK([AEEA-AEEA-γGlu-C18 diacid])PEADASPEELQRYYVALRHYYNWLTRQRY-NH2 (SMILES CC(C)CC(=O)N[C@@H](C)C(=O)N1CCC[C@H]1C(=O)N[C@@H](CCC(=O)O)C(=O)N[C@@H](CCCCNC(=O)COCCOCCNC(=O)COCCOCCNC(=O)CC[C@H](NC(=O)CCCCCCCCCCCCCCCCC(=O)O)C(=O)O)C(=O)N1CCC[C@H]1C(=O)N[C@@H](CCC(=O)O)C(=O)N[C@@H](C)C(=O)N[C@@H](CC(=O)O)C(=O)N[C@@H](C)C(=O)N[C@@H](CO)C(=O)N1CCC[C@H]1C(=O)N[C@@H](CCC(=O)O)C(=O)N[C@@H](CCC(=O)O)C(=O)N[C@@H](CC(C)C)C(=O)N[C@@H](CCC(N)=O)C(=O)N[C@@H](CCCNC(=N)N)C(=O)N[C@@H](Cc1ccc(O)cc1)C(=O)N[C@@H](Cc1ccc(O)cc1)C(=O)N[C@H](C(=O)N[C@@H](C)C(=O)N[C@@H](CC(C)C)C(=O)N[C@@H](CCCNC(=N)N)C(=O)N[C@@H](Cc1c[nH]cn1)C(=O)N[C@@H](Cc1ccc(O)cc1)C(=O)N[C@@H](Cc1ccc(O)cc1)C(=O)N[C@@H](CC(N)=O)C(=O)N[C@@H](Cc1c[nH]c2ccccc12)C(=O)N[C@@H](CC(C)C)C(=O)N[C@H](C(=O)N[C@@H](CCCNC(=N)N)C(=O)N[C@@H](CCC(N)=O)C(=O)N[C@@H](CCCNC(=N)N)C(=O)N[C@@H](Cc1ccc(O)cc1)C(N)=O)[C@@H](C)O)C(C)C)", "note": "[Compound 181]", "values": [
      {"measurement": "Ki", "result": 0.67, "unit": "nM"}
    ]},
    {"binder": "Isovaleryl-APEK([AEEA-AEEA-γGlu-C18 diacid])PEEDASPEELQRYYVSLRHQYNWLTRQRY-NH2 (SMILES CC(C)CC(=O)N[C@@H](C)C(=O)N1CCC[C@H]1C(=O)N[C@@H](CCC(=O)O)C(=O)N[C@@H](CCCCNC(=O)COCCOCCNC(=O)COCCOCCNC(=O)CC[C@H](NC(=O)CCCCCCCCCCCCCCCCC(=O)O)C(=O)O)C(=O)N1CCC[C@H]1C(=O)N[C@@H](CCC(=O)O)C(=O)N[C@@H](CCC(=O)O)C(=O)N[C@@H](CC(=O)O)C(=O)N[C@@H](C)C(=O)N[C@@H](CO)C(=O)N1CCC[C@H]1C(=O)N[C@@H](CCC(=O)O)C(=O)N[C@@H](CCC(=O)O)C(=O)N[C@@H](CC(C)C)C(=O)N[C@@H](CCC(N)=O)C(=O)N[C@@H](CCCNC(=N)N)C(=O)N[C@@H](Cc1ccc(O)cc1)C(=O)N[C@@H](Cc1ccc(O)cc1)C(=O)N[C@H](C(=O)N[C@@H](CO)C(=O)N[C@@H](CC(C)C)C(=O)N[C@@H](CCCNC(=N)N)C(=O)N[C@@H](Cc1c[nH]cn1)C(=O)N[C@@H](CCC(N)=O)C(=O)N[C@@H](Cc1ccc(O)cc1)C(=O)N[C@@H](CC(N)=O)C(=O)N[C@@H](Cc1c[nH]c2ccccc12)C(=O)N[C@@H](CC(C)C)C(=O)N[C@H](C(=O)N[C@@H](CCCNC(=N)N)C(=O)N[C@@H](CCC(N)=O)C(=O)N[C@@H](CCCNC(=N)N)C(=O)N[C@@H](Cc1ccc(O)cc1)C(N)=O)[C@@H](C)O)C(C)C)", "note": "[Compound 187]", "values": [
      {"measurement": "Ki", "result": 2.76, "unit": "nM"}
    ]},
    {"binder": "Isovaleryl-APEK([AEEA-AEEA-γGlu-C18 diacid])PEEAASPEELQRYYVTLRHYYNWLTRQRY-NH2 (SMILES CC(C)CC(=O)N[C@@H](C)C(=O)N1CCC[C@H]1C(=O)N[C@@H](CCC(=O)O)C(=O)N[C@@H](CCCCNC(=O)COCCOCCNC(=O)COCCOCCNC(=O)CC[C@H](NC(=O)CCCCCCCCCCCCCCCCC(=O)O)C(=O)O)C(=O)N1CCC[C@H]1C(=O)N[C@@H](CCC(=O)O)C(=O)N[C@@H](CCC(=O)O)C(=O)N[C@@H](C)C(=O)N[C@@H](C)C(=O)N[C@@H](CO)C(=O)N1CCC[C@H]1C(=O)N[C@@H](CCC(=O)O)C(=O)N[C@@H](CCC(=O)O)C(=O)N[C@@H](CC(C)C)C(=O)N[C@@H](CCC(N)=O)C(=O)N[C@@H](CCCNC(=N)N)C(=O)N[C@@H](Cc1ccc(O)cc1)C(=O)N[C@@H](Cc1ccc(O)cc1)C(=O)N[C@H](C(=O)N[C@H](C(=O)N[C@@H](CC(C)C)C(=O)N[C@@H](CCCNC(=N)N)C(=O)N[C@@H](Cc1c[nH]cn1)C(=O)N[C@@H](Cc1ccc(O)cc1)C(=O)N[C@@H](Cc1ccc(O)cc1)C(=O)N[C@@H](CC(N)=O)C(=O)N[C@@H](Cc1c[nH]c2ccccc12)C(=O)N[C@@H](CC(C)C)C(=O)N[C@H](C(=O)N[C@@H](CCCNC(=N)N)C(=O)N[C@@H](CCC(N)=O)C(=O)N[C@@H](CCCNC(=N)N)C(=O)N[C@@H](Cc1ccc(O)cc1)C(N)=O)[C@@H](C)O)[C@@H](C)O)C(C)C)", "note": "[Compound 184]", "values": [
      {"measurement": "Ki", "result": 2.06, "unit": "nM"}
    ]},
    {"binder": "Isovaleryl-APEK([AEEA-AEEA-γGlu-C18 diacid])PPEDASPEELQRYYVSLRHYYNWLTRQRY-NH2 (SMILES CC(C)CC(=O)N[C@@H](C)C(=O)N1CCC[C@H]1C(=O)N[C@@H](CCC(=O)O)C(=O)N[C@@H](CCCCNC(=O)COCCOCCNC(=O)COCCOCCNC(=O)CC[C@H](NC(=O)CCCCCCCCCCCCCCCCC(=O)O)C(=O)O)C(=O)N1CCC[C@H]1C(=O)N1CCC[C@H]1C(=O)N[C@@H](CCC(=O)O)C(=O)N[C@@H](CC(=O)O)C(=O)N[C@@H](C)C(=O)N[C@@H](CO)C(=O)N1CCC[C@H]1C(=O)N[C@@H](CCC(=O)O)C(=O)N[C@@H](CCC(=O)O)C(=O)N[C@@H](CC(C)C)C(=O)N[C@@H](CCC(N)=O)C(=O)N[C@@H](CCCNC(=N)N)C(=O)N[C@@H](Cc1ccc(O)cc1)C(=O)N[C@@H](Cc1ccc(O)cc1)C(=O)N[C@H](C(=O)N[C@@H](CO)C(=O)N[C@@H](CC(C)C)C(=O)N[C@@H](CCCNC(=N)N)C(=O)N[C@@H](Cc1c[nH]cn1)C(=O)N[C@@H](Cc1ccc(O)cc1)C(=O)N[C@@H](Cc1ccc(O)cc1)C(=O)N[C@@H](CC(N)=O)C(=O)N[C@@H](Cc1c[nH]c2ccccc12)C(=O)N[C@@H](CC(C)C)C(=O)N[C@H](C(=O)N[C@@H](CCCNC(=N)N)C(=O)N[C@@H](CCC(N)=O)C(=O)N[C@@H](CCCNC(=N)N)C(=O)N[C@@H](Cc1ccc(O)cc1)C(N)=O)[C@@H](C)O)C(C)C)", "note": "[Compound 183]", "values": [
      {"measurement": "Ki", "result": 0.7, "unit": "nM"}
    ]},
    {"binder": "Isovaleryl-APEK([AEEA-AEEA-γGlu-C18 diacid])PEEEASPEELQRYYVELRHYYNWLTRQRY-NH2 (SMILES CC(C)CC(=O)N[C@@H](C)C(=O)N1CCC[C@H]1C(=O)N[C@@H](CCC(=O)O)C(=O)N[C@@H](CCCCNC(=O)COCCOCCNC(=O)COCCOCCNC(=O)CC[C@H](NC(=O)CCCCCCCCCCCCCCCCC(=O)O)C(=O)O)C(=O)N1CCC[C@H]1C(=O)N[C@@H](CCC(=O)O)C(=O)N[C@@H](CCC(=O)O)C(=O)N[C@@H](CCC(=O)O)C(=O)N[C@@H](C)C(=O)N[C@@H](CO)C(=O)N1CCC[C@H]1C(=O)N[C@@H](CCC(=O)O)C(=O)N[C@@H](CCC(=O)O)C(=O)N[C@@H](CC(C)C)C(=O)N[C@@H](CCC(N)=O)C(=O)N[C@@H](CCCNC(=N)N)C(=O)N[C@@H](Cc1ccc(O)cc1)C(=O)N[C@@H](Cc1ccc(O)cc1)C(=O)N[C@H](C(=O)N[C@@H](CCC(=O)O)C(=O)N[C@@H](CC(C)C)C(=O)N[C@@H](CCCNC(=N)N)C(=O)N[C@@H](Cc1c[nH]cn1)C(=O)N[C@@H](Cc1ccc(O)cc1)C(=O)N[C@@H](Cc1ccc(O)cc1)C(=O)N[C@@H](CC(N)=O)C(=O)N[C@@H](Cc1c[nH]c2ccccc12)C(=O)N[C@@H](CC(C)C)C(=O)N[C@H](C(=O)N[C@@H](CCCNC(=N)N)C(=O)N[C@@H](CCC(N)=O)C(=O)N[C@@H](CCCNC(=N)N)C(=O)N[C@@H](Cc1ccc(O)cc1)C(N)=O)[C@@H](C)O)C(C)C)", "note": "[Compound 185]", "values": [
      {"measurement": "Ki", "result": 3.58, "unit": "nM"}
    ]},
    {"binder": "Isovaleryl-APEK([AEEA-AEEA-γGlu-C18 diacid])PEEDGSPEELQRYYVELRHYYNWLTRQRY-NH2 (SMILES CC(C)CC(=O)N[C@@H](C)C(=O)N1CCC[C@H]1C(=O)N[C@@H](CCC(=O)O)C(=O)N[C@@H](CCCCNC(=O)COCCOCCNC(=O)COCCOCCNC(=O)CC[C@H](NC(=O)CCCCCCCCCCCCCCCCC(=O)O)C(=O)O)C(=O)N1CCC[C@H]1C(=O)N[C@@H](CCC(=O)O)C(=O)N[C@@H](CCC(=O)O)C(=O)N[C@@H](CC(=O)O)C(=O)NCC(=O)N[C@@H](CO)C(=O)N1CCC[C@H]1C(=O)N[C@@H](CCC(=O)O)C(=O)N[C@@H](CCC(=O)O)C(=O)N[C@@H](CC(C)C)C(=O)N[C@@H](CCC(N)=O)C(=O)N[C@@H](CCCNC(=N)N)C(=O)N[C@@H](Cc1ccc(O)cc1)C(=O)N[C@@H](Cc1ccc(O)cc1)C(=O)N[C@H](C(=O)N[C@@H](CCC(=O)O)C(=O)N[C@@H](CC(C)C)C(=O)N[C@@H](CCCNC(=N)N)C(=O)N[C@@H](Cc1c[nH]cn1)C(=O)N[C@@H](Cc1ccc(O)cc1)C(=O)N[C@@H](Cc1ccc(O)cc1)C(=O)N[C@@H](CC(N)=O)C(=O)N[C@@H](Cc1c[nH]c2ccccc12)C(=O)N[C@@H](CC(C)C)C(=O)N[C@H](C(=O)N[C@@H](CCCNC(=N)N)C(=O)N[C@@H](CCC(N)=O)C(=O)N[C@@H](CCCNC(=N)N)C(=O)N[C@@H](Cc1ccc(O)cc1)C(N)=O)[C@@H](C)O)C(C)C)", "note": "[Compound 182]", "values": [
      {"measurement": "Ki", "result": 3.45, "unit": "nM"}
    ]}
  ]
}
